B1: Aptamer 2 VEGF746CaP_5s31 with 3' poly(dA)20 (ssDNA)
DNA: CCTTAGTTTAAAGTCACGTCTTAGTTTAAGGAAAAAAAAAAAAAAAAAAAA
B2: Aptamer 3 VEGF746CaP_5s49 with 3' poly(dA)20 (ssDNA)
DNA: CCGTAAACAGTTCTGGTTCCTTAGTTTAAAGTCACGTCTTAGTTTAAGGAAAAAAAAAAAAAAAAAAAA
B3: Aptamer 1 VEGF746CaP_R8m1 with 3' poly(dA)20 (ssDNA)
DNA: GGATTGCCCGATTCACCGTAAACAGTTCTGGTTCCTTAGTTTAAAGTCACGTCTTAGTTTAAGGCATTCTGGAGCGGCATAACAAAAAAAAAAAAAAAAAAAA
B4: Aptamer 5 VEGF746CaP_R8m49 with 3' poly(dA)20 (ssDNA)
DNA: GGATTGCCCGATTCACCGTAAACGTTCTTACATTAGTTTAAAGTCACGTCTTAGTTTAATTAAGCATTCTGGAGCGGCATAACAAAAAAAAAAAAAAAAAAAA
B5: Aptamer 4 VEGF746CaP_5s62 with 3' poly(dA)20 (ssDNA)
DNA: TTCACCGTAAACAGTTCTGGTTCCTTAGTTTAAAGTCACGTCTTAGTTTAAGGCATTCTGGAAAAAAAAAAAAAAAAAAAAA

These binders were tested against VEGF receptor (KDR/VEGFR2) (UniProt P35968 P35968:20-764) (assay: SPR; 5 nM receptor alone, 25 C; receptor binds aptamer-bound VEGF165). Details: tags: R&D Systems 357-KD-050/CF; chain copies: 2.
Method: The aptamers 1 to 5 were used as aptamers, and the VEGF sample and a VEGF receptor sample were used as samples. The VEGF receptor sample was prepared in the same manner as the VEGF sample, except that a VEGF receptor (R&D systems, Cat. No: 357-KD-050/CF) was used instead of the VEGF.
The analysis of binding properties by SPR was carried out in the following manner. First, biotinylated poly(dT) was bound to the sensor chip and each of the poly(dA)-added aptamers was then bound to the chip in the same manner as in Example 1. Subsequently, the 5 nmol/L VEGF sample was injected using an SB1T buffer at a flow rate of 50 μL/min for 240 seconds (first injection), followed by washing performed by flowing the SB1T buffer under the same conditions. Thereafter, the 5 nmol/L VEGF receptor sample was injected using an SB1T buffer at a flow rate of 50 μL/min for 240 seconds (second injection), followed by washing performed by flowing the SB1T buffer under the same conditions. With the time at which the first injection was started being 0 seconds, the signal intensity after the sample injection was measured. The SPR was carried out at 25° C. Also, analysis of binding properties by SPR was carried out in the same manner, except that the first and second injections were performed using the combinations shown in Table 1 below instead of the combination of the VEGF sample and the VEGF receptor sample.
FIGS. 8A to 8E are graphs respectively showing the binding properties of the aptamers 1 to 5 to the samples. […] The horizontal axis indicates the time (sec) elapsed after the start of the first injection, and the vertical axis indicates the signal intensity (RU).

VEGF receptor (KDR/VEGFR2), sequence (P35968 20-764, one chain of several): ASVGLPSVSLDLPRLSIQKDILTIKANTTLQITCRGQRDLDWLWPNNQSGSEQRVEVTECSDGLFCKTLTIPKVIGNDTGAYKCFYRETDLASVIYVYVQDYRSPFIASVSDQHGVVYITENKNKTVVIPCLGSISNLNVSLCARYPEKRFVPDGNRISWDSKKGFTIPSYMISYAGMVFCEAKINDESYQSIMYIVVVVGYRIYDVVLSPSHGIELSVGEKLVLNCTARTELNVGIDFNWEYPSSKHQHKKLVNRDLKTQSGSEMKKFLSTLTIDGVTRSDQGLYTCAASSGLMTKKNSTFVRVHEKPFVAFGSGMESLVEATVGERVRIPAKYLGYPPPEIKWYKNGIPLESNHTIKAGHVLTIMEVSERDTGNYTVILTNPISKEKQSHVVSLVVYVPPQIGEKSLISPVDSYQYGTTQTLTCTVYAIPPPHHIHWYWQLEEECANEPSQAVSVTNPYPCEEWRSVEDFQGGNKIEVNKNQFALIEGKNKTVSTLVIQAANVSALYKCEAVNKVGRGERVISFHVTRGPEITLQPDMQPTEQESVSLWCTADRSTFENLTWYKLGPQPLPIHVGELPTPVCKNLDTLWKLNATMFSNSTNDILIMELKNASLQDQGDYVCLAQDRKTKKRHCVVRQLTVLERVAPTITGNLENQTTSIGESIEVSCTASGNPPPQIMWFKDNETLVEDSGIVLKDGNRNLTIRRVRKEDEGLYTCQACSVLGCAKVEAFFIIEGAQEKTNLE

| Binder | binding result |
| --- | --- |
| B1 | no binding |
| B2 | no binding |
| B3 | no binding |
| B4 | no binding |
| B5 | no binding |

Each binder was assayed against T1, VEGF165 (UniProt P15692-4 P15692-4:27-191) (assay: SPR; 25 C, SB1T pH 7.4, 1 mM MgCl2, 0.01% Tween 20). Details: tags: PeproTech 100-20; chain copies: 2.
Method: (§1) First, as a sensor chip designed specifically for the ProteOn, a streptavidin-immobilized chip (trade name: ProteOn NLC Sensor Chip, BioRad) was set in the ProteOn XPR36. 5 μmol/L biotinylated poly(dT) was injected to a flow cell of the sensor chip using ultrapure water (DDW), and the binding was allowed to proceed until the signal intensity (RU: Resonance Unit) was saturated. The biotinylated poly(dT) was prepared by biotinylating the 5′ end of 20-mer deoxythymidine. Then, each of the poly(dA)-added aptamers (200 nmol/L) was injected to the flow cell of the chip using an SB1T buffer at a flow rate of 25 μL/min for 80 seconds, and the binding was allowed to proceed until the signal intensity was saturated. Subsequently, each of the samples (5 nmol/L) was injected using an SB1T buffer at a flow rate of 50 μL/min for 300 seconds, followed by washing performed by flowing the SB1T buffer under the same conditions. With the time at which the injection was started being 0 seconds, the signal intensity after the sample injection was measured. The SPR was carried out at 25° C.
The pH of the SB1T buffer was 7.4.

T1 sequence (P15692 other isoform, or with tags, fused parts or gaps): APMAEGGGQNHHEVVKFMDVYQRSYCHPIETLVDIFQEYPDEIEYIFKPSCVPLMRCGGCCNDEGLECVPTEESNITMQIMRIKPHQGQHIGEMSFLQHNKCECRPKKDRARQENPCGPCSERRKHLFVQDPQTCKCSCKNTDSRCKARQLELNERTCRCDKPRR

| Binder | Kd [nM] |
| --- | --- |
| CTTAGTTTAAAGTCACGTCTTAGTTTAAAAAAAAAAAAAAAAAAAAAA (ssDNA) [Aptamer 10 VEGF_L28_2 with 3' poly(dA)20] | 4170 |
| CTTAGTTTAAAGTCACGTCTTAGTTTAAGAAAAAAAAAAAAAAAAAAAA (ssDNA) [Aptamer 8 VEGF_L29_1 with 3' poly(dA)20] | 0.0993 |
| CTTAGTTTAAAGTCACGTCTTAGTTTAAGGAAAAAAAAAAAAAAAAAAAA (ssDNA) [Aptamer 6 VEGF_L30_1 with 3' poly(dA)20] | < 0.001 |
| TAGTTTAAAGTCACGTCTTAGTTTAAAAAAAAAAAAAAAAAAAAAA (ssDNA) [Aptamer 12 VEGF_L26_1 with 3' poly(dA)20] | 0.0545 |
| TAGTTTAAAGTCACGTCTTAGTTTAAAAAAAAAAAAAAAAAAAAA (ssDNA) [Aptamer 14 VEGF_L25_1 with 3' poly(dA)20] | 800 |
| TTAGTTTAAAGTCACGTCTTAGTTTAAAAAAAAAAAAAAAAAAAAA (ssDNA) [Aptamer 13 VEGF_L26_2 with 3' poly(dA)20] | 3.49 |
| AGTTTAAAGTCACGTCTTAGTTTAAAAAAAAAAAAAAAAAAAA (ssDNA) [Aptamer 15 VEGF_L23_1 with 3' poly(dA)20] | 92.7 |
| TTAGTTTAAAGTCACGTCTTAGTTTAAAAAAAAAAAAAAAAAAAAAA (ssDNA) [Aptamer 11 VEGF_L27_1 with 3' poly(dA)20] | 0.0276 |
| TTAGTTTAAAGTCACGTCTTAGTTTAAGAAAAAAAAAAAAAAAAAAAA (ssDNA) [Aptamer 9 VEGF_L28_1 with 3' poly(dA)20] | 0.0149 |
| CCTTAGTTTAAAGTCACGTCTTAGTTTAAGAAAAAAAAAAAAAAAAAAAA (ssDNA) [Aptamer 7 VEGF_L30_2 with 3' poly(dA)20] | < 0.001 |

Each binder was assayed against VEGF121 (UniProt P15692-9 P15692-9:27-147) (assay: SPR; signal 0 or less, 5 nM, 25 C). Details: tags: PeproTech 100-20A; chain copies: 2.
Method: (§2) The analysis of the binding properties was carried out using a ProteOn XPR36 (BioRad) in accordance with its instructions for use.
as §1
(§3) The horizontal axis indicates the time (sec) elapsed after the start of the sample injection, and the vertical axis indicates the signal intensity (RU).

VEGF121, sequence (P15692 other isoform, or with tags, fused parts or gaps): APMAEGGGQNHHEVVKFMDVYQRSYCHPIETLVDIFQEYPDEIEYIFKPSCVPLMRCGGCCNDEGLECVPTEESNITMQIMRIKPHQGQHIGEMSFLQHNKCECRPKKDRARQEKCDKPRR

| Binder | binding result |
| --- | --- |
| B1 | no binding |
| B2 | no binding |
| B3 | no binding |
| B4 | no binding |
| B5 | no binding |

What follows are binders tested against BSA (bovine serum albumin) (Bos taurus, UniProt P02769 P02769:25-607) (assay: SPR; signal 0 or less, 5 nM, 25 C). Details: tags: Sigma A7906.
Method: as §2, §1, §3

BSA (bovine serum albumin), sequence (P02769 25-607, one chain of several): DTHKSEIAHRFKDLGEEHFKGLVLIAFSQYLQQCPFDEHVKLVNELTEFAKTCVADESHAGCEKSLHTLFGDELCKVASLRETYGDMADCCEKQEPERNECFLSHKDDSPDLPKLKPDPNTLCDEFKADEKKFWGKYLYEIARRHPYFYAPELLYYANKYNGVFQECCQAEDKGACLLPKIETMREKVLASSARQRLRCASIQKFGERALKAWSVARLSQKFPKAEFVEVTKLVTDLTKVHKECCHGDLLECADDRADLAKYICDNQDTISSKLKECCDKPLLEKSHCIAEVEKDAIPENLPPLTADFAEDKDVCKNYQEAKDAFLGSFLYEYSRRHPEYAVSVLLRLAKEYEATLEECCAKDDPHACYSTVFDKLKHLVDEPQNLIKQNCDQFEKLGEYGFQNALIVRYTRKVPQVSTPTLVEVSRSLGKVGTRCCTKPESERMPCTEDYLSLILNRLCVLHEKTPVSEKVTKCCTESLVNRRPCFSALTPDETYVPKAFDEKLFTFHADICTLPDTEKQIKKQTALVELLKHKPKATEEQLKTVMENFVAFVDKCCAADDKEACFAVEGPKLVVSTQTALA

| Binder | binding result |
| --- | --- |
| B1 | no binding |
| B2 | no binding |
| B3 | no binding |
| B4 | no binding |
| B5 | no binding |

What follows are binders tested against T1, VEGF165 (assay: SPR; 37 C, no Ca, 1 nM VEGF165). Details: tags: PeproTech 100-20; chain copies: 2.

| Binder | binding result |
| --- | --- |
| B1 | binds |
| B2 | binds |
| B3 | binds |
| B4 | binds |
| B5 | binds |
